Test results published in US20250270343A1 (Alector, published 2025).

T1: mouse GPNMB endogenously expressed on B16F10 cells (mouse, UniProt Q99P91 23-574)
T1 construct: whole, on cells; also called moGPNMB
T1 sequence (looked up): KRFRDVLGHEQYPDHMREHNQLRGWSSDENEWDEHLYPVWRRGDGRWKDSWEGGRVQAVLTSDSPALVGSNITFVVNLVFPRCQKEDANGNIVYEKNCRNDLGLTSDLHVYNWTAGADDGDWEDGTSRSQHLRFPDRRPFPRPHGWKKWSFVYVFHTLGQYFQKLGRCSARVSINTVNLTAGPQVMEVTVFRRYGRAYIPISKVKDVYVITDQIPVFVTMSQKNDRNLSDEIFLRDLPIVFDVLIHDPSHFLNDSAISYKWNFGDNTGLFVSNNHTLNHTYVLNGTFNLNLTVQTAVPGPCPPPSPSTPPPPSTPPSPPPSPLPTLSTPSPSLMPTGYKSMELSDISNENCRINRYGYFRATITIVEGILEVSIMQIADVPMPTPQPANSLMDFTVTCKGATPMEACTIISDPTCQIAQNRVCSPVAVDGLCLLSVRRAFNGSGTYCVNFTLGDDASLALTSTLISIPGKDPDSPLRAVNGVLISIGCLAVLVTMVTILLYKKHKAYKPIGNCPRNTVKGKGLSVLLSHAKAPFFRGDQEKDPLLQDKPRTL

T2: full-length untagged human GPNMB expressed on cells (human, UniProt Q14956 23-572)
T2 construct: also used here for GPNMB on human monocyte-derived macrophages in the functional assays; also called huGPNMB; Freestyle293-huGPNMB+
T2 sequence: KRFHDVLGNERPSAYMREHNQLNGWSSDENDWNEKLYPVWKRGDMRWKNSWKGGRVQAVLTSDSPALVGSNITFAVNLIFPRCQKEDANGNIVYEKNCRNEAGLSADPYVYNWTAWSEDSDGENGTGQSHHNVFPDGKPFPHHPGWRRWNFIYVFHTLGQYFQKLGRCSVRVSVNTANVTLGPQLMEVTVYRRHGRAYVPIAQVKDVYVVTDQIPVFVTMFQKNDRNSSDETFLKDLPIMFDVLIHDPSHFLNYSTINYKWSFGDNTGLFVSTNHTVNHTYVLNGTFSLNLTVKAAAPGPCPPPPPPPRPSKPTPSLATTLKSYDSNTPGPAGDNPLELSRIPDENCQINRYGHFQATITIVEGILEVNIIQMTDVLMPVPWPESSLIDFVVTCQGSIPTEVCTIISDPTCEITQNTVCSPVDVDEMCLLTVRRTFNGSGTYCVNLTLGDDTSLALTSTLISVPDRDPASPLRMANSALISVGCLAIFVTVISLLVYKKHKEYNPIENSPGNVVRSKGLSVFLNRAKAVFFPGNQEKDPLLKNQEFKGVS


What was measured:
[1] = molecular target: T1, mouse GPNMB endogenously expressed on …; assay: FACS, B16F10 cells; single-point FACS staining of B16F10 cells; weak signal, 1.7-fold over background
[2] = molecular target: T1, mouse GPNMB endogenously expressed on …; assay: FACS titration on B16F10 cells (endogenous mouse GPNMB) at 4 C; fluorescent secondary antibody; MFI-APC against soluble antibody (nM)
Experimental: Cell-based binding measurements were also performed to measure the apparent affinities of anti-GPNMB antibodies of the present disclosure to cell-surface expressed GPNMB. Serial dilutions of the monoclonal anti-GPNMB antibodies were added to 100,000 Freestyle293-huGPNMB+ or B16F10 cells and allowed to achieve binding equilibrium at 4° C. After addition of fluorescently labeled secondary antibody and brief washing steps, MFI values as a function of titrated antibody concentration was recorded via FACS analysis. Curves were fit using nonlinear regression analysis with Graphpad Prism 6 software.

[3] = molecular target: T2, full-length untagged human GPNMB …; assay: FACS, FS293-huGPNMB+ cells; single-point FACS staining of Freestyle293-huGPNMB+ cells; weak signal, 2.0-fold over background
[4] = molecular target: T2, full-length untagged human GPNMB …; assay: FACS, FS293-huGPNMB+ cells; single-point FACS staining of Freestyle293-huGPNMB+ cells; weak signal, 1.5-fold over background

Row | MFI fold over background [1] | EC50 (read off the curve) [2] | MFI fold over background [3] | MFI fold over background [4] | Binder
1 | 1.7 fold | ~1 nM | – | – | anti-GPNMB antibody GPN-48 (antibody, human IgG1, V domains shown, chimeric) VH: QVQLQQSGPELVKPGASVKLSCRASGYGFSSFWMNWVKQRPGKGLEWIGRIYPGKGDTLYNGKFKDKATLTADESSSTAYMQLSSLTSEDSAVYFCARSIYYYDYWYFDVWDTGTTVTVSS VL: DIVMTQSHKFMSTSVGDRVNITCKASQDVNSAIAWYQQKPGQSPKLLIYSASYRFIGVPDRFTGSGSGTGFTFTISSVQAEDLAVYYCQQHYTTPLTFGAGTKLELK
2 | 1.7 fold | ~0.1 nM | – | – | anti-GPNMB antibody GPN-61 (antibody, human IgG1, V domains shown, chimeric) VH: DVQLQESGPGLVKPSQTVFLTCTVTGISITTGNYRWSWIRQFPGNKLEWIGYIYYSGTITYNPSLTSRTTITRDTPKNQFFLEMSSLTAEDTATYFCARDLRHWYFDVWGTGTTVTVSS VL: not shown
3 | – | – | 2 fold | – | anti-GPNMB antibody GPN-42 (antibody, human IgG1, V domains shown, chimeric) VH: DVKLVESGEDLVKPGGSLKLSCAASGFTFSSYAMSWVRQTPEKRLEWVAYISSGGDYIYYADTVKGRFTISRDNARNTLYLQMSSLKSEDTAMYYCTRDRYYDYDVRDYYTMDYWGQGTSVTVSS VL: DVMMTQTPLSLPVSLGDQASISCRSSQSLVHSNGNTYLHWFLQKPGQSPKLLIFRVSNRFSGVPDRFSGRGSGTDFTLKISRVEAEDLGVYFCSQTTHVPRTFGGGTTLEIK
4 | – | – | – | 1.5 fold | anti-GPNMB antibody GPN-43 (antibody, human IgG1, V domains shown, chimeric) VH: EVQLQQSGPELVKPGASVKISCKASGYTFTDYYMNWVRQSHGKSLEWIGDINPYHGGSTYNQKIKVKATLTVDKSSSTAYMELRSLTSEDSAVYYCARNWPYFDYWGQGTTLTVSS VL: DIQMTQSPASLSASVGETVTITCRASENIYSFLVWYQQKQGKSPQLLVYNAKTLAEGVPSRFSGSGSGTQFSLKISSLQPEDFGSYYCQHHFGTPPYTFGGGTKLEIK
